Assay results as given in article PMC10904395, “The Deinococcus protease PprI senses DNA damage by directly interacting with single-stranded DNA”.

Target: T1, DG-PprI patch 1 mutant (Deinococcus geothermalis, UniProt Q1J1D6 1-289, R85A;R207A;R267A)
T1 sequence: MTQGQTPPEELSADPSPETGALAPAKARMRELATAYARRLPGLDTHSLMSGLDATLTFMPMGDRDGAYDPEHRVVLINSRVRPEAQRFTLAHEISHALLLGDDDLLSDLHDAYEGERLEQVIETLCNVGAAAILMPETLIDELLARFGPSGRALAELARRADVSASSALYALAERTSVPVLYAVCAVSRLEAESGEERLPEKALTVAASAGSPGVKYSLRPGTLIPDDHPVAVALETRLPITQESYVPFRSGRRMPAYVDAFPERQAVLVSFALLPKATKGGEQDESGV
Test: EMSA; EMSA: 150 mM NaCl, 20 mM Tris-HCl pH 8.0, 0.1 mg/ml BSA, 0.1 uM FAM-labeled nucleic acid, 0/1/2 uM protein, room temperature 30 min, 10% native PAGE in 1x TB
Settings: protein: recombinant; label: 5' FAM

CGCTCTTCGCCATTCTCTTGAAGTTTCAAACTTGG (ssDNA) [35nt ssDNA]
binding result: no binding
